Results on 4 molecules are retold here after patent US20240034778A1 (REGENTS OF THE UNIVERSITY OF MICHIGAN, published 2024).

Positions count from the first letter of the chain named.

Assay [1] addresses T1, Aβ fibrils (fibrils of Aβ1-42) (UniProt P05067 672-713).
T1 construct: domain: Aβ1-42; Fibrillar (aggregated) state of synthetic Aβ1-42; For flow cytometry the fibrils were doped with 1% biotinylated Aβ1-42 and held on streptavidin Dynabeads; for dot blots unlabeled fibrils were spotted on nitrocellulose; also called Aβ42 fibrils; fibrillar Aβ
The assay can be described thus: flow cytometry, antibody on Aβ fibril-coated streptavidin beads. The procedure:
(§1) For affinity analysis, the binding of antibodies to Aβ fibrils was evaluated using streptavidin dynabeads and flow cytometry. Beads were immobilized with 1% biotinylated fibrils as described above. The fibril-coated beads were washed twice with PBSB and then blocked with 10% milk in PBS at room temperature for 1 hour with end-over-end mixing. Afterward, the beads were washed 2× with PBSB.
(§2) Antibodies were thawed and centrifuged at 21000× g for 5 minutes to remove aggregates. The supernatant was transferred to a new tube and the antibody concentration was determined by measuring absorbance at 280 nm. Antibody dilutions were made in PBSB. Fibril-coated beads (1.25×10⁵ beads per evaluated antibody concentration) were incubated with antibodies in 96 well plates (Greiner, 650261) in 1% milk for 3 hours at 25° C.(300 RPM). Next, the plates were centrifuged at 3500 RPM for 5 minutes, the supernatants were discarded, and the beads were washed once with ice-cold PBSB. After washing, the plates were spun down again and the beads with resuspended with 300× diluted goat anti-human Fc AF647 (Jackson Immunoresearch, 109-605-098) on ice for 4-5 minutes. […] Two independent repeats were performed with different batches of beads coated with Aβ fibrils.
For orientation: In flow cytometry, cells or beads pass a laser one at a time.

Assay [2] has as its target T1, Aβ fibrils (fibrils of Aβ1-42). In words: immunodot blot, antibody at 10 nM, 30 second exposure. The procedure: (§3) FIG. 6A includes images of an immunoblot analysis of the conformational and sequence specificity of the selected Aβ antibodies. Disaggregated Aβ and fibrillar Aβ, IAPP, and αSyn were immobilized on nitrocellulose membranes and probed with anti-Aβ antibodies (10 nM in PBS with 1% milk). The blots were imaged after relatively short exposure times (30 seconds) except for AF1 (45 minute exposure). A loading control blot was detected using colloidal silver stain. The experiments were repeated three times and a representative example is shown. FIG. 6B includes images of immunoblot analysis of the conformational and sequence specificity of the selected Aβ antibodies using a long exposure time. The blots were processed and imaged as described in FIG. 6A except that all of the blots were processed after a relatively long exposure time (45 minutes). A loading control blot was detected using colloidal silver stain. The experiments were repeated three times and a representative example is shown.
(§4) The conformational specificity of the selected antibodies was then assessed using immunodot blots (FIG. 6A).

Assay [3] deals with T2, disaggregated Aβ (Aβ1-42) (UniProt P05067 672-713).
T2 construct: domain: Aβ1-42; Same peptide as the fibrils, in the disaggregated (soluble) state; also called soluble Aβ; Aβ monomer
The assay can be described thus: immunodot blot, antibody at 10 nM, 45 minute exposure. The procedure:
as §3, §4

Assay [4] addresses T1, Aβ fibrils (fibrils of Aβ1-42). In words: flow cytometry, antibody on Aβ fibril-coated streptavidin beads (fibril batch of FIG. 5). Here is the method: as §1, §2
Assay [5] shares this target. In words: flow cytometry, antibody on Aβ fibril-coated streptavidin beads (fibril batch of FIG. 10). Here is the method:
as §1, §2

B1: crenezumab (antibody, V domains shown)
VH: EVQLVESGGGLVQPGGSLRLSCAASGFTFSSYGMSWVRQAPGKGLELVASINSNGGSTYYPDSVKGRFTISRDNAKNSLYLQMNSLRAEDTAVYYCASGDYWGQGTTVTVSS
VL: DIVMTQSPLSLPVTPGEPASISCRSSQSLVYSNGDTYLHWYLQKPGQSPQLLIYKVSNRFSGVPDRFSGSGSGTDFTLKISRVEAEDVGVYYCSQSTHVPWTFGQGTKVEIKR
Regarding B1, the EC50 (as a rule, the concentration needed to bring the measured effect to its halfway point) in assay [1] was determined as 9 nM.

B2: Clone 101 (Fc fusion)
VH: EVQLVESGGGLVQPGGSLRLSCAASGFNIKDTYIHWVRQAPGKGLEWVARIYPASGSTRYAGSVKGRFTISADTSKNTAYLQMNSLRAEDTAVYYCARDGYDGSYFVGYDYNDFYDYWGQGTLVTVSS
VL: DIQMTQSPSSLSASVGDRVTITCRASQNVYSAVTWYQQKPGKAPKLLIYSASFLYSGVPSRFSGSRSGTDFTLTISSLQPEDFATYYCQQHSTYPPTFGQGTKVEIK
Take B2: the binding result in assay [2] and in assay [3] was “binds” throughout.

B3: Clone 97 (Fc fusion)
VH: B2 VH with S57A, G62D
VL: B2 VL with Y30A, S31Y
notes: also called parental antibody (clone 97); 97 WT
For the molecule B3, the EC50 in assay [4] turned out to be 8 nM; in assay [5], 18 nM.

B4: Clone 93 (Fc fusion)
VH: B2 VH with A54S, S55N, S57Y
VL: B2 VL with S31N, S92N
Regarding B4, the binding result in assay [2] and in assay [3] was “binds” throughout.
